T1: Axl (Homo sapiens, UniProt P30530)
T1 sequence (P30530 26-451 limits assumed): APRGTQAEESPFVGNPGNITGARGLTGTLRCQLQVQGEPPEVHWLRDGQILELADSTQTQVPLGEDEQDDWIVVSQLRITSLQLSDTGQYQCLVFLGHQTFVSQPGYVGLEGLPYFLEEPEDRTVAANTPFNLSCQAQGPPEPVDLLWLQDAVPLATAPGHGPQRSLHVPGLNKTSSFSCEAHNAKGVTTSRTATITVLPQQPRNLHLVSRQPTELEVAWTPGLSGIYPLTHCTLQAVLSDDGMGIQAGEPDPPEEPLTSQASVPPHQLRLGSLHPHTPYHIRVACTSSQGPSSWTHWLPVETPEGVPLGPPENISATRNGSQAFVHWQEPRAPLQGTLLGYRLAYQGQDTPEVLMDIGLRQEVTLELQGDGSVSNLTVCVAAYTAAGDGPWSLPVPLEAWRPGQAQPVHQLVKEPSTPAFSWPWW

B1: HC-A106D (antibody, V domains shown)
VH: EVQLVQSGAEVKKPGATVKISCKVSGYSFTGHTMNWIRQPPGKGLEWIGLIKPSNGGTSYNQKFKGRVTISADKSISTAYLQWSSLKASDTAMYYCAHGHYESYFDMDYWGQGTLVTVSS
VL: DIQMTQSPSSLSASVGDRVTITCKASQDVSSAVAWYQQKPGQAPRLLIYWASTRHTGVPSRFSGSGSGTEFTLTISSLQPDDFATYYCQEHFSTPLTFGQGTKVEIK
B2: HC-G111H (antibody, V domains shown)
VH: B1 VH with D106A, G111H
VL: B1 VL
B3: HC-A106G (antibody, V domains shown)
VH: B1 VH with D106G
VL: B1 VL
B4: HC-W110R (antibody, V domains shown)
VH: B1 VH with D106A, W110R
VL: B1 VL
B5: HC-W110D (antibody, V domains shown)
VH: B1 VH with D106A, W110D
VL: B1 VL
B6: HC-M107E (antibody, V domains shown)
VH: B1 VH with D106A, M107E
VL: B1 VL
B7: HC-W110N (antibody, V domains shown)
VH: B1 VH with D106A, W110N
VL: B1 VL
B8: HC-A106Y (antibody, V domains shown)
VH: B1 VH with D106Y
VL: B1 VL
B9: HC-W110L (antibody, V domains shown)
VH: B1 VH with D106A, W110L
VL: B1 VL
B10: HC-A106L (antibody, V domains shown)
VH: B1 VH with D106L
VL: B1 VL
B11: HC-W110P (antibody, V domains shown)
VH: B1 VH with D106A, W110P
VL: B1 VL
B12: HC-W110A (antibody, V domains shown)
VH: B1 VH with D106A, W110A
VL: B1 VL
B13: HC-M107F (antibody, V domains shown)
VH: B1 VH with D106A, M107F
VL: B1 VL
B14: HC-W110T (antibody, V domains shown)
VH: B1 VH with D106A, W110T
VL: B1 VL
B15: CAB-Axl-ADC: anti-Axl antibody conjugated to a model toxin (e.g., gemcitabine), conditionally active antibody-drug conjugate (conjugate)
VH: B1 VH with T30W, H32A, F105E, D106A
VL: B1 VL with S30V, A51Q, S52D, T94P

Changes are numbered by the printed parent chain. Names and notes keep the numbering of the source.

One experiment addresses Axl (UniProt P30530). As to the kind of experiment: ELISA, 1:3 dilution.
Conditions: not given
(In general: ELISA stands for enzyme-linked immunosorbent assay.)
For the molecule B1, the Affinity ELISA CPE mutant ratio (1:3, pH 6.0/7.4) turned out to be 3.39.

Turning to B2, the Affinity ELISA CPE mutant ratio (1:3, pH 6.0/7.4) came to 1.06.

Consider B3, for which the Affinity ELISA CPE mutant ratio (1:3, pH 6.0/7.4) came to 1.52.

Consider B4, for which the Affinity ELISA CPE mutant ratio (1:3, pH 6.0/7.4) is 5.99.

Regarding B5, the Affinity ELISA CPE mutant ratio (1:3, pH 6.0/7.4) came to 3.72.

Take B6: the Affinity ELISA CPE mutant ratio (1:3, pH 6.0/7.4) worked out at 2.16.

Turning to B7, the Affinity ELISA CPE mutant ratio (1:3, pH 6.0/7.4) was found to be 4.3.

Regarding B8, the Affinity ELISA CPE mutant ratio (1:3, pH 6.0/7.4) was 3.29.

B9: the Affinity ELISA CPE mutant ratio (1:3, pH 6.0/7.4) came out at 8.22.

B10: the Affinity ELISA CPE mutant ratio (1:3, pH 6.0/7.4) is 21.5.

B11: the Affinity ELISA CPE mutant ratio (1:3, pH 6.0/7.4) turned out to be 6.49.

As to B12, the Affinity ELISA CPE mutant ratio (1:3, pH 6.0/7.4) was 7.91.

B13: the Affinity ELISA CPE mutant ratio (1:3, pH 6.0/7.4) came out at 20.6.

Regarding B14, the Affinity ELISA CPE mutant ratio (1:3, pH 6.0/7.4) turned out to be 7.47.

For another experiment, the system named is MiaPaCa2 xenograft tumors. The experiment is described as follows: MiaPaCa2 xenograft tumor study in mice. As to conditions: 1 mg/kg twice weekly for 3 weeks; in comparison with the controls. In kind it is in vivo. The protocol: The CAB-Axl-ADC was then injected into mice bearing MiaPaCa2 xenograft tumors at a dose of 1 mg/kg twice weekly for 3 weeks. Several controls were used in this study, including naked CAB (anti-Axl antibody with no conjugation), vehicle, the toxin alone (unconjugated gemcitable), control ADC, an affinity matching anti-Axl ADC (AM ADC).
As to B15, the “reduction in the size of the tumor” value is “significantly greater reduction in the size of the tumor”.

A further experiment has as its target T1, Axl. The experiment is described as follows: Affinity ELISA of CPE mutant antibodies for binding to Axl at pH 6.0 over pH 7.4. As to conditions: heavy chain variable region mutants; 1:3 dilution. In outline: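 Single-point mutant anti-Axl antibody library (CPE) screened by ELISA for binding at pH 6.0 versus pH 7.4, at 1:3 and 1:9 antibody dilutions, in serum with FLAG-tag detection and carbonate (Krebs-Ringer) buffer. Selection criterion: pH 6.0/pH 7.4 binding ratio ≥1.5 at either dilution.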
As to B1, the “Affinity ELISA CPE mutant ratio (1:3, pH 6.0/7.4)” value is listed as 3.389.

Turning to B2, the “Affinity ELISA CPE mutant ratio (1:3, pH 6.0/7.4)” value is given as 1.058.

In the case of B3, the “Affinity ELISA CPE mutant ratio (1:3, pH 6.0/7.4)” value was 1.519.

For the molecule B4, the “Affinity ELISA CPE mutant ratio (1:3, pH 6.0/7.4)” value is listed as 5.991.

Consider B5, for which the “Affinity ELISA CPE mutant ratio (1:3, pH 6.0/7.4)” value was found to be 3.716.

Turning to B6, the “Affinity ELISA CPE mutant ratio (1:3, pH 6.0/7.4)” value stood at 2.164.

As for B7, the “Affinity ELISA CPE mutant ratio (1:3, pH 6.0/7.4)” value stood at 4.304.

Take B8: the “Affinity ELISA CPE mutant ratio (1:3, pH 6.0/7.4)” value came to 3.293.

B9: the “Affinity ELISA CPE mutant ratio (1:3, pH 6.0/7.4)” value is listed as 8.220.

With B10, the “Affinity ELISA CPE mutant ratio (1:3, pH 6.0/7.4)” value was found to be 21.538.

As for B11, the “Affinity ELISA CPE mutant ratio (1:3, pH 6.0/7.4)” value is recorded as 6.490.

Regarding B12, the “Affinity ELISA CPE mutant ratio (1:3, pH 6.0/7.4)” value is on record as 7.909.

Regarding B13, the “Affinity ELISA CPE mutant ratio (1:3, pH 6.0/7.4)” value came out at 20.579.

With B14, the “Affinity ELISA CPE mutant ratio (1:3, pH 6.0/7.4)” value worked out at 7.469.

The experiment is the same for the next values; noted with them: heavy chain variable region mutants; 1:9 dilution.
For B1, the “Affinity ELISA CPE mutant ratio (1:9, pH 6.0/7.4)” value was determined as 2.506.

Regarding B2, the “Affinity ELISA CPE mutant ratio (1:9, pH 6.0/7.4)” value is 1.786.

Take B3: the “Affinity ELISA CPE mutant ratio (1:9, pH 6.0/7.4)” value is 2.196.

For the molecule B4, the “Affinity ELISA CPE mutant ratio (1:9, pH 6.0/7.4)” value is given as 1.062.

For B5, the “Affinity ELISA CPE mutant ratio (1:9, pH 6.0/7.4)” value was determined as 1.112.

As to B6, the “Affinity ELISA CPE mutant ratio (1:9, pH 6.0/7.4)” value is reported as 1.357.

For the molecule B7, the “Affinity ELISA CPE mutant ratio (1:9, pH 6.0/7.4)” value was 0.800.

As for B8, the “Affinity ELISA CPE mutant ratio (1:9, pH 6.0/7.4)” value is 3.060.

Take B9: the “Affinity ELISA CPE mutant ratio (1:9, pH 6.0/7.4)” value came to 0.924.

Take B10: the “Affinity ELISA CPE mutant ratio (1:9, pH 6.0/7.4)” value is on record as 1.613.

Consider B11, for which the “Affinity ELISA CPE mutant ratio (1:9, pH 6.0/7.4)” value came out at 2.148.

Regarding B12, the “Affinity ELISA CPE mutant ratio (1:9, pH 6.0/7.4)” value was found to be 1.198.

In the case of B13, the “Affinity ELISA CPE mutant ratio (1:9, pH 6.0/7.4)” value amounted to 1.090.

Consider B14, for which the “Affinity ELISA CPE mutant ratio (1:9, pH 6.0/7.4)” value was found to be 1.372.

Another experiment has as its system A549 cells. As to the kind of experiment: Conditional cell killing by CAB-Axl-ADC (model toxin) at pH 6.0 and 7.4. As to conditions: FIG. 11. The experiment is classed as cell-based. The text has this: The anti-Axl antibody of the present invention was conjugated to a model toxin (e.g., gemcitabine) to produce a conditionally active antibody-drug conjugate (CAB-Axl-ADC). The CAB-Axl-ADC was first tested to confirm that the conditional cell killing activity was not altered by the drug conjugation process.
With B15, the “cell killing at pH 6.0 versus pH 7.4” value is “killed significantly more cells at pH 6.0 than at pH 7.4”.

Another experiment has as its target Axl (UniProt P30530). The experiment is described as follows: ELISA, 1:9 dilution.
Conditions: not given
On to B1, for which the Affinity ELISA CPE mutant ratio (1:9, pH 6.0/7.4) was determined as 2.51.

For B2, the Affinity ELISA CPE mutant ratio (1:9, pH 6.0/7.4) stood at 1.79.

Regarding B3, the Affinity ELISA CPE mutant ratio (1:9, pH 6.0/7.4) worked out at 2.2.

Take B4: the Affinity ELISA CPE mutant ratio (1:9, pH 6.0/7.4) is 1.06.

Turning to B5, the Affinity ELISA CPE mutant ratio (1:9, pH 6.0/7.4) came out at 1.11.

Turning to B6, the Affinity ELISA CPE mutant ratio (1:9, pH 6.0/7.4) came out at 1.36.

For B7, the Affinity ELISA CPE mutant ratio (1:9, pH 6.0/7.4) came out at 0.8.

As for B8, the Affinity ELISA CPE mutant ratio (1:9, pH 6.0/7.4) worked out at 3.06.

Consider B9, for which the Affinity ELISA CPE mutant ratio (1:9, pH 6.0/7.4) is 0.924.

As for B10, the Affinity ELISA CPE mutant ratio (1:9, pH 6.0/7.4) is 1.61.

For B11, the Affinity ELISA CPE mutant ratio (1:9, pH 6.0/7.4) was 2.15.

For the molecule B12, the Affinity ELISA CPE mutant ratio (1:9, pH 6.0/7.4) was determined as 1.2.

Turning to B13, the Affinity ELISA CPE mutant ratio (1:9, pH 6.0/7.4) was determined as 1.09.

Take B14: the Affinity ELISA CPE mutant ratio (1:9, pH 6.0/7.4) turned out to be 1.37.

These data come from patent US20250276075A1, “METHODS OF TREATING AXL-EXPRESSING CANCERS WITH ANTI-AXL ANTIBODIES, ANTIBODY FRAGMENTS AND THEIR IMMUNOCONJUGATES” (BIOATLA, INC., priority 2020, published 2025).
